Data on 91 substances can be found in the Human Domainome abundance scans (Beltran et al. 2025).

± gives the uncertainty stated by the source.

The data set can be described thus: abundance fitness (aPCA) (normalised: wild type 0, dead -1); higher = more abundant; growth selection in yeast, the domain comes from the species named. As to conditions: Saccharomyces cerevisiae (strain ATCC 204508 / S288c).
The substance “E3 ubiquitin-protein ligase RSP5 G331N, P39940” registered an abundance fitness of -0.01 ± 0.1. On to “E3 ubiquitin-protein ligase RSP5 G331P, P39940”, for which the abundance fitness is -0.249 ± 0.07. Take “E3 ubiquitin-protein ligase RSP5 G331R, P39940”: the abundance fitness is -0.17 ± 0.041. With “E3 ubiquitin-protein ligase RSP5 G331S, P39940”, the abundance fitness was -0.186 ± 0.046. “E3 ubiquitin-protein ligase RSP5 G331T, P39940” registered an abundance fitness of -0.09 ± 0.046. As for “E3 ubiquitin-protein ligase RSP5 G331V, P39940”, the figure is -0.083 ± 0.047. “E3 ubiquitin-protein ligase RSP5 G331W, P39940” displayed an abundance fitness of -0.329 ± 0.049.

Substance “E3 ubiquitin-protein ligase RSP5 G331Y, P39940” came in with an abundance fitness of -0.202 ± 0.17. “E3 ubiquitin-protein ligase RSP5 G336A, P39940”: the abundance fitness is -0.447 ± 0.05.

The substance “E3 ubiquitin-protein ligase RSP5 G336C, P39940” came in with an abundance fitness of -0.427 ± 0.063. Substance “E3 ubiquitin-protein ligase RSP5 G336D, P39940” had an abundance fitness of -0.368 ± 0.07. With “E3 ubiquitin-protein ligase RSP5 G336E, P39940”, the abundance fitness was -0.562 ± 0.059.

“E3 ubiquitin-protein ligase RSP5 G336F, P39940” returned an abundance fitness of -0.544 ± 0.067. As for “E3 ubiquitin-protein ligase RSP5 G336H, P39940”, the abundance fitness was -0.157 ± 0.2. Take “E3 ubiquitin-protein ligase RSP5 G336I, P39940”: the abundance fitness is -1.3 ± 0.13.

As for “E3 ubiquitin-protein ligase RSP5 G336K, P39940”, the abundance fitness is -0.302 ± 0.062.

Substance “E3 ubiquitin-protein ligase RSP5 G336L, P39940” registered an abundance fitness of -0.575 ± 0.062. The same measure for “E3 ubiquitin-protein ligase RSP5 G336M, P39940”: -0.531 ± 0.1. In the case of “E3 ubiquitin-protein ligase RSP5 G336P, P39940”, the abundance fitness is -0.755 ± 0.057. The same measure for “E3 ubiquitin-protein ligase RSP5 G336Q, P39940”: -0.271 ± 0.079; for “E3 ubiquitin-protein ligase RSP5 G336S, P39940”: -0.471 ± 0.061. Substance “E3 ubiquitin-protein ligase RSP5 G336T, P39940” had an abundance fitness of -0.461 ± 0.072. The substance “E3 ubiquitin-protein ligase RSP5 G336V, P39940” showed an abundance fitness of -1.11 ± 0.061. The same measure for “E3 ubiquitin-protein ligase RSP5 G336W, P39940”: -0.558 ± 0.054. As for “E3 ubiquitin-protein ligase RSP5 G336Y, P39940”, the figure is -0.815 ± 0.19; as for “E3 ubiquitin-protein ligase RSP5 G345C, P39940”, -0.364 ± 0.06. The substance “E3 ubiquitin-protein ligase RSP5 G345D, P39940” showed an abundance fitness of -0.271 ± 0.26. On to “E3 ubiquitin-protein ligase RSP5 G345E, P39940”, for which the abundance fitness was -0.312 ± 0.057. As for “E3 ubiquitin-protein ligase RSP5 G345K, P39940”, the abundance fitness stood at 0.148 ± 0.11. As for “E3 ubiquitin-protein ligase RSP5 G345L, P39940”, the figure is -0.303 ± 0.062; as for “E3 ubiquitin-protein ligase RSP5 G345M, P39940”, -0.14 ± 0.074. In turn, “E3 ubiquitin-protein ligase RSP5 G345P, P39940” returned an abundance fitness of -0.717 ± 0.084. The same measure for “E3 ubiquitin-protein ligase RSP5 G345Q, P39940”: -0.202 ± 0.08.

In the case of “E3 ubiquitin-protein ligase RSP5 G345R, P39940”, the abundance fitness is -0.219 ± 0.047. “E3 ubiquitin-protein ligase RSP5 G345T, P39940” showed an abundance fitness of -0.665 ± 0.069.

“E3 ubiquitin-protein ligase RSP5 G345W, P39940” yielded an abundance fitness of -0.466 ± 0.049. On to “E3 ubiquitin-protein ligase RSP5 H352A, P39940”, for which the abundance fitness was -0.236 ± 0.045. “E3 ubiquitin-protein ligase RSP5 H352C, P39940”: the abundance fitness was -0.384 ± 0.067. The same measure for “E3 ubiquitin-protein ligase RSP5 H352D, P39940”: -0.325 ± 0.099.

“E3 ubiquitin-protein ligase RSP5 H352E, P39940” had an abundance fitness of -0.296 ± 0.056. The same measure for “E3 ubiquitin-protein ligase RSP5 H352G, P39940”: -0.229 ± 0.04; for “E3 ubiquitin-protein ligase RSP5 H352I, P39940”: -0.046 ± 0.16.

“E3 ubiquitin-protein ligase RSP5 H352K, P39940” gave an abundance fitness of -0.176 ± 0.074. With “E3 ubiquitin-protein ligase RSP5 H352L, P39940”, the abundance fitness is -0.235 ± 0.057. The substance “E3 ubiquitin-protein ligase RSP5 H352M, P39940” gave an abundance fitness of -0.104 ± 0.053. On to “E3 ubiquitin-protein ligase RSP5 H352N, P39940”, for which the abundance fitness is 0.049 ± 0.085. On to “E3 ubiquitin-protein ligase RSP5 H352P, P39940”, for which the abundance fitness was -0.636 ± 0.05. In turn, “E3 ubiquitin-protein ligase RSP5 H352Q, P39940” came in with an abundance fitness of -0.19 ± 0.086. On to “E3 ubiquitin-protein ligase RSP5 H352R, P39940”, for which the abundance fitness was -0.253 ± 0.046. Regarding “E3 ubiquitin-protein ligase RSP5 H352S, P39940”, the abundance fitness is -0.297 ± 0.051. As for “E3 ubiquitin-protein ligase RSP5 H352T, P39940”, the figure is -0.197 ± 0.055; as for “E3 ubiquitin-protein ligase RSP5 H352V, P39940”, -0.361 ± 0.056. The substance “E3 ubiquitin-protein ligase RSP5 H352W, P39940” showed an abundance fitness of -0.223 ± 0.049. For “E3 ubiquitin-protein ligase RSP5 H352Y, P39940”, the abundance fitness is -0.176 ± 0.12.

Consider “E3 ubiquitin-protein ligase RSP5 L330A, P39940”, for which the abundance fitness came to 0.005 ± 0.046. As for “E3 ubiquitin-protein ligase RSP5 L330C, P39940”, the abundance fitness was found to be 0.05 ± 0.062. “E3 ubiquitin-protein ligase RSP5 L330D, P39940” returned an abundance fitness of 0.02 ± 0.065.

Substance “E3 ubiquitin-protein ligase RSP5 L330E, P39940” came in with an abundance fitness of 0.013 ± 0.063. For the substance “E3 ubiquitin-protein ligase RSP5 L330F, P39940”, the abundance fitness was -0.014 ± 0.071. “E3 ubiquitin-protein ligase RSP5 L330G, P39940” had an abundance fitness of -0.087 ± 0.043.

As to “E3 ubiquitin-protein ligase RSP5 L330H, P39940”, the abundance fitness was -0.048 ± 0.067. In turn, “E3 ubiquitin-protein ligase RSP5 L330I, P39940” had an abundance fitness of 0.007 ± 0.062. For the substance “E3 ubiquitin-protein ligase RSP5 L330K, P39940”, the abundance fitness was -0.023 ± 0.056. Regarding “E3 ubiquitin-protein ligase RSP5 L330M, P39940”, the abundance fitness came to 0.089 ± 0.073. As for “E3 ubiquitin-protein ligase RSP5 L330N, P39940”, the figure is 0.054 ± 0.08.

In the case of “E3 ubiquitin-protein ligase RSP5 L330P, P39940”, the abundance fitness was -0.058 ± 0.069. With “E3 ubiquitin-protein ligase RSP5 L330Q, P39940”, the abundance fitness is -0.024 ± 0.053. As for “E3 ubiquitin-protein ligase RSP5 L330R, P39940”, the figure is -0.088 ± 0.045; as for “E3 ubiquitin-protein ligase RSP5 L330S, P39940”, -0.055 ± 0.05. In turn, “E3 ubiquitin-protein ligase RSP5 L330T, P39940” returned an abundance fitness of -0.044 ± 0.062. Turning to “E3 ubiquitin-protein ligase RSP5 L330V, P39940”, the abundance fitness was -0.019 ± 0.041.

With “E3 ubiquitin-protein ligase RSP5 L330W, P39940”, the abundance fitness is -0.161 ± 0.054. Take “E3 ubiquitin-protein ligase RSP5 L330Y, P39940”: the abundance fitness was -0.003 ± 0.08.

As for “E3 ubiquitin-protein ligase RSP5 L333A, P39940”, the abundance fitness is -0.648 ± 0.05. Substance “E3 ubiquitin-protein ligase RSP5 L333C, P39940” yielded an abundance fitness of -0.428 ± 0.06.

On to “E3 ubiquitin-protein ligase RSP5 L333D, P39940”, for which the abundance fitness was -0.472 ± 0.14. The same measure for “E3 ubiquitin-protein ligase RSP5 L333E, P39940”: -0.64 ± 0.075. On to “E3 ubiquitin-protein ligase RSP5 L333F, P39940”, for which the abundance fitness is -0.034 ± 0.054.

On to “E3 ubiquitin-protein ligase RSP5 L333G, P39940”, for which the abundance fitness is -0.708 ± 0.043.

“E3 ubiquitin-protein ligase RSP5 L333H, P39940” had an abundance fitness of -0.451 ± 0.07. As for “E3 ubiquitin-protein ligase RSP5 L333I, P39940”, the figure is -0.227 ± 0.067.

The substance “E3 ubiquitin-protein ligase RSP5 L333K, P39940” registered an abundance fitness of -0.6 ± 0.09.

Turning to “E3 ubiquitin-protein ligase RSP5 L333M, P39940”, the abundance fitness is -0.037 ± 0.097. Substance “E3 ubiquitin-protein ligase RSP5 L333N, P39940” showed an abundance fitness of -0.627 ± 0.1. “E3 ubiquitin-protein ligase RSP5 L333P, P39940” yielded an abundance fitness of -0.63 ± 0.054. The same measure for “E3 ubiquitin-protein ligase RSP5 L333S, P39940”: -0.654 ± 0.053; for “E3 ubiquitin-protein ligase RSP5 L333T, P39940”: -0.572 ± 0.054. As for “E3 ubiquitin-protein ligase RSP5 L333V, P39940”, the figure is -0.447 ± 0.05; as for “E3 ubiquitin-protein ligase RSP5 L333W, P39940”, -0.331 ± 0.052; as for “E3 ubiquitin-protein ligase RSP5 N353D, P39940”, -0.147 ± 0.15.

As for “E3 ubiquitin-protein ligase RSP5 N353E, P39940”, the abundance fitness was -0.149 ± 0.06.
